Bridge positions count the residues as written; N and C are the ends. Square brackets hold non-standard residues; d marks the D form. Primed or numbered codes have the meaning given here. Ends that are not written are not given here. hArg = N=C(N)NCCCC[C@H](N)C(=O)O; Hyp′ = 3-hydroxyproline; Ahp = NCCCCCCC(=O)O; Ahx = NCCCCCC(=O)O

One assay addresses T1, His-tagged PCSK9Δhelix (human, UniProt Q8NBP7 31-152; Q8NBP7 168-692).
T1 construct: Human PCSK9 M1-Q692 with an engineered TEV site, cut by TEV protease; new N-terminus of the catalytic domain is S-A168; also called His-PCSK9Δhelix; not shown: His tag
Kind of assay: TR-FRET competition (PCSK9Δhelix/Ab20 assay); competitor Ab20.

The target of assay [1] is T2, His-tagged, full-length PCSK9 (human, UniProt Q8NBP7 31-692).
T2 construct: secreted PCSK9 is autocatalytically cleaved into prodomain and catalytic domain + CRD (from S153), which stay associated; also called His-PCSK9; proprotein convertase subtilisin/kexin type 9; not shown: His tag
T2 sequence (Q8NBP7 31-692 limits assumed): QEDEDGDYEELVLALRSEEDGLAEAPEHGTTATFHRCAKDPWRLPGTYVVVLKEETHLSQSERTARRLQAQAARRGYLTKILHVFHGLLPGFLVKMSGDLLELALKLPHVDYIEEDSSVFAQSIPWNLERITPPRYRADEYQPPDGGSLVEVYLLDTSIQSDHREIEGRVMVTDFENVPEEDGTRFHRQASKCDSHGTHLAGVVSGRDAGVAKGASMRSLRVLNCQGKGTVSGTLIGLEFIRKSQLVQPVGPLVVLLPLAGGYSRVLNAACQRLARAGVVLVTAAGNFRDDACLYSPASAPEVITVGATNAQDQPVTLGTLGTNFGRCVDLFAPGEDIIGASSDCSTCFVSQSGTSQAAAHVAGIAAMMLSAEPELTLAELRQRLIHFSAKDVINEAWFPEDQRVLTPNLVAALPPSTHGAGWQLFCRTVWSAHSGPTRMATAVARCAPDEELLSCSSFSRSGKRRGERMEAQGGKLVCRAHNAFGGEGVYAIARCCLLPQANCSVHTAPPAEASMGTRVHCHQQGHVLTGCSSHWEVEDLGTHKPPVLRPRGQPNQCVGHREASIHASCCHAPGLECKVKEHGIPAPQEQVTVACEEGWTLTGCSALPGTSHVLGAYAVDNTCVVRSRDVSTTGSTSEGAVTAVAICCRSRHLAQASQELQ
Kind of assay: TR-FRET competition (PCSK9/EGF(A) assay); competitor EGF(A)-Fc.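 Also: proximity signal from anti-His APC on PCSK9 paired with anti-Fc europium on the Fc ligand, read as normalized TR-FRET ratio across compound dilutions.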

T1 sequence (Q8NBP7 31-152, stated change not applied, chain 1 of 2): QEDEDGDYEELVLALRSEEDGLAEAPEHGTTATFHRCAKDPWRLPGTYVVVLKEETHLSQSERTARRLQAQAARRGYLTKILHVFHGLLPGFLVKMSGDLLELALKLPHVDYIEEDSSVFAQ
T1 sequence (Q8NBP7 other isoform, or with tags, fused parts or gaps mutant, chain 2 of 2): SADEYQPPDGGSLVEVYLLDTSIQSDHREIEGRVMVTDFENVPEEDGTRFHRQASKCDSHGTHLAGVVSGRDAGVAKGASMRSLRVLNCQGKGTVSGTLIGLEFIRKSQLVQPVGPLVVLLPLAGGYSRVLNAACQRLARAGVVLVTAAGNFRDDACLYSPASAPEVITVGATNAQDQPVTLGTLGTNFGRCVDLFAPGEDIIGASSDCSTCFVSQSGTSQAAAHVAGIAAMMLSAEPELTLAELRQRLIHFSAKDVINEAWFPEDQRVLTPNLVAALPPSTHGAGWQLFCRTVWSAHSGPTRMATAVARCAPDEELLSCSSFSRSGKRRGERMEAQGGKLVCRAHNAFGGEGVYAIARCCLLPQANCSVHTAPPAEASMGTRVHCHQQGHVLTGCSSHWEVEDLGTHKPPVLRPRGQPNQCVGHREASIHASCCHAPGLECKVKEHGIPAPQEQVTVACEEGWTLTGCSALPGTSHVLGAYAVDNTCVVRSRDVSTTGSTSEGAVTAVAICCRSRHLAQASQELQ
Description for His-tagged PCSK9Δhelix: Signal generation in the PCSK9 binding assays was dependent upon the binding interaction to bring into close proximity the His-tag on the PCSK9 and the Fc-tag on the ligand. Anti-His-APC was bound to the His-tag, and anti-Fc-europium was bound to the Fc-tag.
Compounds were solubilized and dilutions were prepared in DMSO. […] The plate was centrifuged to mix the well contents and allowed to incubate for 30 min. […] The normalized TR-FRET ratios were plotted as a function of the compound concentrations, and the IC₅₀ values were determined using a 4-parameter logistic regression.

B1: Compound 108 (Ac-CRlPWNLQRIGLPC-NH2) (peptide)
peptide: Ac-CR[dL]PWNLQRIGLPC-NH2
modifications: disulfide 1-14
SMILES: CC[C@H](C)[C@@H]1NC(=O)[C@H](CCCNC(=N)N)NC(=O)[C@H](CCC(N)=O)NC(=O)[C@H](CC(C)C)NC(=O)[C@H](CC(N)=O)NC(=O)[C@H](Cc2c[nH]c3ccccc23)NC(=O)[C@@H]2CCCN2C(=O)[C@@H](CC(C)C)NC(=O)[C@H](CCCNC(=N)N)NC(=O)[C@@H](NC(C)=O)CSSC[C@@H](C(N)=O)NC(=O)[C@@H]2CCCN2C(=O)[C@H](CC(C)C)NC(=O)CNC1=O
For orientation: IC50 means the point on the concentration scale where inhibition reaches its midpoint. As for B1, the IC50 is 28.2 µM in the assay with His-tagged PCSK9Δhelix and > 50 µM in assay [1].
For Ac-WCLWNLKRIGSQCWF (disulfide 2-13) [Compound 90 (Ac-WCLWNLKRIGSQCWF)], in that order: 7.38 µM and 29.2 µM.

B2: Compound 63 (Ac-MCLWNLKRIGSQCEY-NH2) (peptide)
peptide: Ac-MCLWNLKRIGSQCEY-NH2
modifications: disulfide 2-13
SMILES: CC[C@H](C)[C@@H]1NC(=O)[C@H](CCCNC(=N)N)NC(=O)[C@H](CCCCN)NC(=O)[C@H](CC(C)C)NC(=O)[C@H](CC(N)=O)NC(=O)[C@H](Cc2c[nH]c3ccccc23)NC(=O)[C@H](CC(C)C)NC(=O)[C@@H](NC(=O)[C@H](CCSC)NC(C)=O)CSSC[C@@H](C(=O)N[C@@H](CCC(=O)O)C(=O)N[C@@H](Cc2ccc(O)cc2)C(N)=O)NC(=O)[C@H](CCC(N)=O)NC(=O)[C@H](CO)NC(=O)CNC1=O
In the case of B2, the half-maximal inhibitory concentration (IC50) with His-tagged PCSK9Δhelix was determined as 6 µM; in assay [1], 14.6 µM.

B3: Compound 65 (Ac-WCLWNLKRIGSQCEY-NH2) (peptide)
peptide: Ac-WCLWNLKRIGSQCEY-NH2
modifications: disulfide 2-13
SMILES: CC[C@H](C)[C@@H]1NC(=O)[C@H](CCCNC(=N)N)NC(=O)[C@H](CCCCN)NC(=O)[C@H](CC(C)C)NC(=O)[C@H](CC(N)=O)NC(=O)[C@H](Cc2c[nH]c3ccccc23)NC(=O)[C@H](CC(C)C)NC(=O)[C@@H](NC(=O)[C@H](Cc2c[nH]c3ccccc23)NC(C)=O)CSSC[C@@H](C(=O)N[C@@H](CCC(=O)O)C(=O)N[C@@H](Cc2ccc(O)cc2)C(N)=O)NC(=O)[C@H](CCC(N)=O)NC(=O)[C@H](CO)NC(=O)CNC1=O
For the molecule B3, the half-maximal inhibitory concentration (IC50) with His-tagged PCSK9Δhelix is 7.1 µM; in assay [1] it was > 50 µM.

B4: Compound 95 (Ac-FCLWNLKRIGSQCEY-NH2) (peptide)
peptide: Ac-FCLWNLKRIGSQCEY-NH2
modifications: disulfide 2-13
SMILES: CC[C@H](C)[C@@H]1NC(=O)[C@H](CCCNC(=N)N)NC(=O)[C@H](CCCCN)NC(=O)[C@H](CC(C)C)NC(=O)[C@H](CC(N)=O)NC(=O)[C@H](Cc2c[nH]c3ccccc23)NC(=O)[C@H](CC(C)C)NC(=O)[C@@H](NC(=O)[C@H](Cc2ccccc2)NC(C)=O)CSSC[C@@H](C(=O)N[C@@H](CCC(=O)O)C(=O)N[C@@H](Cc2ccc(O)cc2)C(N)=O)NC(=O)[C@H](CCC(N)=O)NC(=O)[C@H](CO)NC(=O)CNC1=O
With B4, the IC50 was 12.7 µM with His-tagged PCSK9Δhelix and > 50 µM in assay [1].

B5: Compound 99 (Ac-CRLPWNLQRIGLpC-NH2) (peptide)
peptide: Ac-CRLPWNLQRIGL[dP]C-NH2
modifications: disulfide 1-14
SMILES: CC[C@H](C)[C@@H]1NC(=O)[C@H](CCCNC(=N)N)NC(=O)[C@H](CCC(N)=O)NC(=O)[C@H](CC(C)C)NC(=O)[C@H](CC(N)=O)NC(=O)[C@H](Cc2c[nH]c3ccccc23)NC(=O)[C@@H]2CCCN2C(=O)[C@H](CC(C)C)NC(=O)[C@H](CCCNC(=N)N)NC(=O)[C@@H](NC(C)=O)CSSC[C@@H](C(N)=O)NC(=O)[C@H]2CCCN2C(=O)[C@H](CC(C)C)NC(=O)CNC1=O
With B5, the IC50 with His-tagged PCSK9Δhelix is 1.3 µM; in assay [1], > 50 µM.

B6: Compound 116 (Ac-CRLPWNLQRI-(Ahx)-C-NH2) (peptide)
peptide: Ac-CRLPWNLQRI[Ahx]C-NH2
modifications: disulfide 1-12
SMILES: CC[C@H](C)[C@@H]1NC(=O)[C@H](CCCNC(=N)N)NC(=O)[C@H](CCC(N)=O)NC(=O)[C@H](CC(C)C)NC(=O)[C@H](CC(N)=O)NC(=O)[C@H](Cc2c[nH]c3ccccc23)NC(=O)[C@@H]2CCCN2C(=O)[C@H](CC(C)C)NC(=O)[C@H](CCCNC(=N)N)NC(=O)[C@@H](NC(C)=O)CSSC[C@@H](C(N)=O)NC(=O)CCCCCNC1=O
As to B6, the IC50 was 31.6 µM with His-tagged PCSK9Δhelix and > 50 µM in assay [1].

B7: Compound 117 (Ac-CRLPWNLQ(homoR)IGLPC-NH2) (peptide)
peptide: Ac-CRLPWNLQ[hArg]IGLPC-NH2
modifications: disulfide 1-14
SMILES: CC[C@H](C)[C@@H]1NC(=O)[C@H](CCCCNC(=N)N)NC(=O)[C@H](CCC(N)=O)NC(=O)[C@H](CC(C)C)NC(=O)[C@H](CC(N)=O)NC(=O)[C@H](Cc2c[nH]c3ccccc23)NC(=O)[C@@H]2CCCN2C(=O)[C@H](CC(C)C)NC(=O)[C@H](CCCNC(=N)N)NC(=O)[C@@H](NC(C)=O)CSSC[C@@H](C(N)=O)NC(=O)[C@@H]2CCCN2C(=O)[C@H](CC(C)C)NC(=O)CNC1=O
With B7, the values for the IC50 (with His-tagged PCSK9Δhelix; in assay [1]) were 0.334 µM and > 50 µM, respectively.
For Ac-SGCRL[Hyp′]WNLQRIGLPC-NH2 (disulfide 3-16) [Compound 37 (Ac-SG-CRL(Hyp)WNLQRIGLPC-NH2)], the half-inhibitory concentration (IC50) in the assay with His-tagged PCSK9Δhelix was 11.1 µM; in assay [1] it was > 50 µM.

B8: Compound 89 (WCLWNLKRIGSQCWF-NH2) (peptide)
peptide: WCLWNLKRIGSQCWF-NH2
modifications: disulfide 2-13; N-terminus assumed
SMILES: CC[C@H](C)[C@@H]1NC(=O)[C@H](CCCNC(=N)N)NC(=O)[C@H](CCCCN)NC(=O)[C@H](CC(C)C)NC(=O)[C@H](CC(N)=O)NC(=O)[C@H](Cc2c[nH]c3ccccc23)NC(=O)[C@H](CC(C)C)NC(=O)[C@@H](NC(=O)[C@@H](N)Cc2c[nH]c3ccccc23)CSSC[C@@H](C(=O)N[C@@H](Cc2c[nH]c3ccccc23)C(=O)N[C@@H](Cc2ccccc2)C(N)=O)NC(=O)[C@H](CCC(N)=O)NC(=O)[C@H](CO)NC(=O)CNC1=O
Consider B8, for which the IC50 was 2.98 µM in the assay with His-tagged PCSK9Δhelix and 6.9 µM in assay [1].

B9: Compound 87 (Ac-GCLWNLKRIGSQCWF-NH2) (peptide)
peptide: Ac-GCLWNLKRIGSQCWF-NH2
modifications: disulfide 2-13
SMILES: CC[C@H](C)[C@@H]1NC(=O)[C@H](CCCNC(=N)N)NC(=O)[C@H](CCCCN)NC(=O)[C@H](CC(C)C)NC(=O)[C@H](CC(N)=O)NC(=O)[C@H](Cc2c[nH]c3ccccc23)NC(=O)[C@H](CC(C)C)NC(=O)[C@@H](NC(=O)CNC(C)=O)CSSC[C@@H](C(=O)N[C@@H](Cc2c[nH]c3ccccc23)C(=O)N[C@@H](Cc2ccccc2)C(N)=O)NC(=O)[C@H](CCC(N)=O)NC(=O)[C@H](CO)NC(=O)CNC1=O
B9: the IC50 was 9.53 µM in the assay with His-tagged PCSK9Δhelix and > 50 µM in assay [1].

B10: Compound 110 (Ac-cRLPWNLQRIGLPC-NH2) (peptide)
peptide: Ac-[dC]RLPWNLQRIGLPC-NH2
modifications: disulfide 1-14
SMILES: CC[C@H](C)[C@@H]1NC(=O)[C@H](CCCNC(=N)N)NC(=O)[C@H](CCC(N)=O)NC(=O)[C@H](CC(C)C)NC(=O)[C@H](CC(N)=O)NC(=O)[C@H](Cc2c[nH]c3ccccc23)NC(=O)[C@@H]2CCCN2C(=O)[C@H](CC(C)C)NC(=O)[C@H](CCCNC(=N)N)NC(=O)[C@H](NC(C)=O)CSSC[C@@H](C(N)=O)NC(=O)[C@@H]2CCCN2C(=O)[C@H](CC(C)C)NC(=O)CNC1=O
Consider B10, for which the half-maximal inhibitory concentration (IC50) with His-tagged PCSK9Δhelix is 1.78 µM; in assay [1], > 50 µM.

B11: Compound 109 (Ac-CrLPWNLQRIGLPC-NH2) (peptide)
peptide: Ac-C[dR]LPWNLQRIGLPC-NH2
modifications: disulfide 1-14
SMILES: CC[C@H](C)[C@@H]1NC(=O)[C@H](CCCNC(=N)N)NC(=O)[C@H](CCC(N)=O)NC(=O)[C@H](CC(C)C)NC(=O)[C@H](CC(N)=O)NC(=O)[C@H](Cc2c[nH]c3ccccc23)NC(=O)[C@@H]2CCCN2C(=O)[C@H](CC(C)C)NC(=O)[C@@H](CCCNC(=N)N)NC(=O)[C@@H](NC(C)=O)CSSC[C@@H](C(N)=O)NC(=O)[C@@H]2CCCN2C(=O)[C@H](CC(C)C)NC(=O)CNC1=O
On to B11, for which the IC50 is 1.67 µM in the assay with His-tagged PCSK9Δhelix and > 50 µM in assay [1].

B12: Compound 66 (WCLWNLKRIGSQCWF) (peptide)
peptide: H-WCLWNLKRIGSQCWF-OH
modifications: disulfide 2-13
SMILES: CC[C@H](C)[C@@H]1NC(=O)[C@H](CCCNC(=N)N)NC(=O)[C@H](CCCCN)NC(=O)[C@H](CC(C)C)NC(=O)[C@H](CC(N)=O)NC(=O)[C@H](Cc2c[nH]c3ccccc23)NC(=O)[C@H](CC(C)C)NC(=O)[C@@H](NC(=O)[C@@H](N)Cc2c[nH]c3ccccc23)CSSC[C@@H](C(=O)N[C@@H](Cc2c[nH]c3ccccc23)C(=O)N[C@@H](Cc2ccccc2)C(=O)O)NC(=O)[C@H](CCC(N)=O)NC(=O)[C@H](CO)NC(=O)CNC1=O
B12: the IC50 in the assay with His-tagged PCSK9Δhelix is 12 µM; in assay [1], 31.3 µM.

B13: Compound 88 (Ac-FCLWNLARIGSQCWF-NH2) (peptide)
peptide: Ac-FCLWNLARIGSQCWF-NH2
modifications: disulfide 2-13
SMILES: CC[C@H](C)[C@@H]1NC(=O)[C@H](CCCNC(=N)N)NC(=O)[C@H](C)NC(=O)[C@H](CC(C)C)NC(=O)[C@H](CC(N)=O)NC(=O)[C@H](Cc2c[nH]c3ccccc23)NC(=O)[C@H](CC(C)C)NC(=O)[C@@H](NC(=O)[C@H](Cc2ccccc2)NC(C)=O)CSSC[C@@H](C(=O)N[C@@H](Cc2c[nH]c3ccccc23)C(=O)N[C@@H](Cc2ccccc2)C(N)=O)NC(=O)[C@H](CCC(N)=O)NC(=O)[C@H](CO)NC(=O)CNC1=O
As for B13, the half-maximal inhibitory concentration (IC50) was 7.46 µM with His-tagged PCSK9Δhelix and 17.9 µM in assay [1].

B14: Compound 121 (Ac-CRLPWNLQRI-(Ahp)-C-NH2) (peptide)
peptide: Ac-CRLPWNLQRI[Ahp]C-NH2
modifications: disulfide 1-12
SMILES: CC[C@H](C)[C@@H]1NC(=O)[C@H](CCCNC(=N)N)NC(=O)[C@H](CCC(N)=O)NC(=O)[C@H](CC(C)C)NC(=O)[C@H](CC(N)=O)NC(=O)[C@H](Cc2c[nH]c3ccccc23)NC(=O)[C@@H]2CCCN2C(=O)[C@H](CC(C)C)NC(=O)[C@H](CCCNC(=N)N)NC(=O)[C@@H](NC(C)=O)CSSC[C@@H](C(N)=O)NC(=O)CCCCCCNC1=O
With B14, the IC50 with His-tagged PCSK9Δhelix is 40.3 µM; in assay [1], > 50 µM.

(Values after patent US20200283478A1 (Genentech, published 2020).)
